Reference: patent US9540424B2, “Serum albumin binding molecules” (BRISTOL-MYERS SQUIBB COMPANY, priority 2010, dated 2017)
Each block holds one molecule with its values, some of them ahead of it.

Columns and labels:
[1] = biological target: RhSA (Macaca mulatta, UniProt Q28522); assay: Biacore kinetics of SABAs on immobilized serum albumin: RhSA; format: binding, rhesus; settings: for Kd: target RhSA
Description: In addition, binding to albumin was carried out under various pH conditions ranging from pH 5.5 to pH 7.4.

[2] = biological target: HSA (Homo sapiens, UniProt P02768); settings: for Resistant to pH 7.4→5.5?: binding to HSA from pH 7.4 down to pH 5.5, symbols not defined
[3] = biological target: T1, Human serum albumin (Homo sapiens, UniProt P02768); assay: SPR (ProteOn XPR36) binding of SABA-neuropeptide fusions to Human Serum Albumin; settings: 25° C., average of two experiments
T1 construct: purchased Novozymes Recombumin
Description: Surface Plasmon Resonance (SPR) is a direct binding technique by which molecular interactions can be observed in real time. For these experiments, SPR binding studies were performed using a ProteOn XPR36 instrument (BioRad Laboratories). The running buffer, phosphate buffered saline 0.05% Tween 20 pH 7.4, was purchased from Teknova (cat #P1192) and all experiments were run at 25° C. Human serum albumin was directly immobilized on a BioRad GLC chip via amine coupling as per manufacturer's guidelines using amine coupling reagents purchased from BioRad Laboratories. Human serum albumin was purchased from Novozymes (Recombumin™). About 5000 resonance units (RU) of human serum albumin were immobilized onto 4 separate lanes of the GLC chip surface. For each analyte, five concentrations ranging from 15.6 nM to 250 nM were injected over the surface at 30 μl/min for 240 seconds. The dissociation was monitored for 600 seconds. The surface was regenerated with 100 mM HCl. The resultant data were fitted to a Langumuir 1:1 binding model using the ProteOn Manager Software. The experiment was repeated with a different concentration range. In this second experiment, 5 concentrations ranging from 500 nM to 32 nM were injected over the surfaces, and the data analyzed as above. The KD is the disassociation constant. Smaller numbers indicate tighter binding to serum albumin. Molecules covalently attached to SABA that bind to serum albumin display longer in vivo pharmokinetic half-lives, as described earlier with respect to SABA-FGF-21 fusions.

[4] = Half-life of HSA and of SABA1-4 with or without HSA in mice (ELISA, WinNonlin); format: in vivo, Ncr nude female mice; settings: for PK (T½) Mice: co-injected with HSA (3-4 molar excess), tail vein; for half-life in mice plasma: injected without HSA; for increase in half life when co-injected with HSA: with HSA vs without HSA, mice
Description: The pharmacokinetic parameters of each Adnectin™ were determined using non-compartmental modeling with WinNonlin software.

[5] = Pharmacokinetics of His-tagged FGF21 and SABA-FGF21 fusions in monkeys; format: in vivo, cynomolgus monkeys; settings: monkeys
Description: Various in vivo studies were conducted in mice and monkeys to characterize the pharmacokinetics of His-tagged FGF21 and SABA1-FGF21v1. An ELISA-based ligand binding assay was used to measure the His-tagged FGF21 and SABA1-FGF21v1 in all mouse and monkey plasma samples.
Following subcutaneous administration, His-tagged FGF21 was well absorbed.
Following subcutaneous administration, SABA1-FGF21v1 was well absorbed.

[6] = Analytical size exclusion chromatography (SEC) of SABAs; format: physicochemical; settings: midscaled material
Description: Size exclusion chromatography (SEC) was performed on the SABAs resulting from the HTPP. SEC of HTPP derived material was performed using a Superdex 200 5/150 or Superdex 75 5/150 column (GE Healthcare) on an Agilent 1100 or 1200 HPLC system with UV detection at A214 nm and A280 nm and with fluorescence detection (excitation=280 nm, emission=350 nm). A buffer of 100 mM sodium sulfate, 100 mM sodium phosphate, 150 mM sodium chloride, pH 6.8 at appropriate flow rate of the SEC column employed. Gel filtration standards (Bio-Rad Laboratories, Hercules, Calif.) were used for molecular weight calibration.
Midscale expression and purification yielded highly pure and active Adnectins™ that were expressed in a soluble form and purified from the soluble fraction of the bacterial cytosol.
Standard size exclusion chromatography (SEC) was performed on the candidate SABAs resulting from the midscale process. SEC of midscaled material was performed using a Superdex 200 10/30 or on a Superdex 75 10/30 column (GE Healthcare) on an Agilent 1100 or 1200 HPLC system with UV detection at A214 nm and A280 nm and with fluorescence detection (excitation=280 nm, emission=350 nm). A buffer of 100 mM sodium sulfate, 100 mM sodium phosphate, 150 mM sodium chloride, pH 6.8 at appropriate flow rate of the SEC column employed. Gel filtration standards (Bio-Rad Laboratories, Hercules, Calif.) were used for molecular weight calibration.

[7] = biological target: MuSA (Mus musculus, UniProt P07724); assay: Biacore kinetics of SABAs on immobilized serum albumin: MuSA; format: binding
[8] = intravenous, His-tagged FGF21 0.5 mg/kg, SABA1-FGF21v1 0.08 mg/kg

Chain of RhSA (Q28522 17-600): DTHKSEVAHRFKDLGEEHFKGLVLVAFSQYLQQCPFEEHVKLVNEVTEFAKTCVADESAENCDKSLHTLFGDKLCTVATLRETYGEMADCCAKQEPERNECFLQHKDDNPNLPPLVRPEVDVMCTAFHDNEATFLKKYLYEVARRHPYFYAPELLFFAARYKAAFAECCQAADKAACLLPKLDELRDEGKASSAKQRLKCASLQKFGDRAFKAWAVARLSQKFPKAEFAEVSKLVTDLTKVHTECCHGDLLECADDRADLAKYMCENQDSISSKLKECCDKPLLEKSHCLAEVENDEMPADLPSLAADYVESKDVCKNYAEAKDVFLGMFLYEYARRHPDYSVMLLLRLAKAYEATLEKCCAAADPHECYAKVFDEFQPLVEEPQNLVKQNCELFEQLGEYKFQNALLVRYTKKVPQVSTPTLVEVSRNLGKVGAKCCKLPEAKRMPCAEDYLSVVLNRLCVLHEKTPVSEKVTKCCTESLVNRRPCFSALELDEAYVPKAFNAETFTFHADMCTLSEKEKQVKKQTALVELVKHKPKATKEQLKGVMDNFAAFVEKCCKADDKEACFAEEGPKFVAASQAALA
Chain of MuSA (P07724 25-608): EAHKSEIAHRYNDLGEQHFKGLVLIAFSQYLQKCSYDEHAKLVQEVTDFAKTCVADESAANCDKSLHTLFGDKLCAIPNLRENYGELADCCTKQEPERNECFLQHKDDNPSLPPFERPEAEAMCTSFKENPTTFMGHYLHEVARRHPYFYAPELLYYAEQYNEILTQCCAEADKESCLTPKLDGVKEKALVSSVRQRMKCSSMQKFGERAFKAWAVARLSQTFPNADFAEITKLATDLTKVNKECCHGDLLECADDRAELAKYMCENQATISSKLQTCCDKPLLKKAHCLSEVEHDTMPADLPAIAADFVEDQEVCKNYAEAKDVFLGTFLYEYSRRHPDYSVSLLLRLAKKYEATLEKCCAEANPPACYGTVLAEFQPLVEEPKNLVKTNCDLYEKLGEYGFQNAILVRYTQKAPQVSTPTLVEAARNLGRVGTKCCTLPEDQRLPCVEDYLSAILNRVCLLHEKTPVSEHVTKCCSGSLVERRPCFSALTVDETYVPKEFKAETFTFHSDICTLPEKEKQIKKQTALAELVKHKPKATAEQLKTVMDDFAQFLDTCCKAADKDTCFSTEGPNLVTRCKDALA

- Kd [1]: 778 nM
B1: SABA1: serum albumin binding 10Fn3 core sequence, SEQ ID NO: 4; in Table 5 stands for SABA1.1 (protein)
chain: EVVAATPTSLLISWHSYYEQNSYYRITYGETGGNSPVQEFTVPYSQTTATISGLKPGVDYTITVYAVYGSKYYYPISINYRT
- Kd [2]: 47.2 nM

B2: SABA1-APPv7: SEQ ID NO: 364; SABA1.7-(ED)5G-Cys conjugated to Maleimide-PEG20-PP-CONH2 (conjugate)
chain: MGVSDVPRDLEVVAATPTSLLISWHSYYEQNSYYRITYGETGGNSPVQEFTVPYSQTTATISGLKPGVDYTITVYAVYGSKYYYPISINYRTEIEDEDEDEDEDGC
modifications: Maleimide-PEG20-PP-CONH2 conjugated via Cys
- Koff (1/s) [3]: 1.42 10^−4 1/s
- Kon (1/Ms) [3]: 7.88 10^3 1/Ms

B3: SABA1-PYYv7: SEQ ID NO: 344; SABA1.7-(ED)5G-Cys conjugated to Maleimide-PEG20-PYY-CONH2 (conjugate)
chain: MGVSDVPRDLEVVAATPTSLLISWHSYYEQNSYYRITYGETGGNSPVQEFTVPYSQTTATISGLKPGVDYTITVYAVYGSKYYYPISINYRTEIEDEDEDEDEDGC
modifications: Maleimide-PEG20-PYY-CONH2 conjugated via Cys
- Koff (1/s) [3]: 2.08 10^−4 1/s
- Kon (1/Ms) [3]: 9.29 10^3 1/Ms

- Kd [1]: > 1000 nM
- Resistant to pH 7.4→5.5? [2]: pH sensitive
B4: SABA4: SABA core with a scaffold mutation; same BC, DE, FG loops as SABA5; in Table 5 stands for SABA4.1 (protein)
chain: EMVAATPTSLLISWEDDSYYSRYYRITYGETGGNSPVQEFTVPSDLYTATISGLKPGVDYTITVYAVTYDVTDLIMHEPISINYRT
- PK (T½) Mice [4]: 4.6 h
- Kd [2]: 412 nM

- Kd [1]: 431 nM
B5: SABA3: SABA core sequence from PROfusion; in Table 5 stands for SABA3.1 (protein)
chain: EVVAATPTSLLISWSNDGPGLSYYRITYGETGGNSPVQEFTVPSSQTTATISGLKPGVDYTITVYAVSYYTKKAYSAGPISINYRT
- Kd [2]: 863 nM
- Resistant to pH 7.4→5.5? [2]: pH resistant binding to HSA down to pH 6.0

B6: FGF21-SABA1v1: fusion in which the SABA moiety is at the C-terminus of FGF21, SEQ ID NO: 171; 300 aa; DNA SEQ ID NO: 180 (protein)
chain: MPIPDSSPLLQFGGQVRQRYLYTDDAQQTEAHLEIREDGTVGGAADQSPESLLQLKALKPGVIQILGVKTSRFLCQRPDGALYGSLHFDPEACSFRELLLEDGYNVYQSEAHGLPLHLPGNKSPHRDPAPRGPARFLPLPGLPPALPEPPGILAPQPPDVGSSDPLSMVGPSQGRSPSYASGGSGSGSGSGSGSGSGVSDVPRDLEVVAATPTSLLISWHSYYEQNSYYRITYGETGGNSPVQEFTVPYSQTTATISGLKPGVDYTITVYAVYGSKYYYPISINYRTEIDKPSQHHHHHH
- increase of t1/2 compared to His-tagged FGF21 [5]: ~27 fold
- CL (total body plasma clearance, CLTp) [5, 8]: 1.2 mL/h/kg
- T½ (terminal half-life) [5, 8]: 50.3 h
- Vdss (steady-state volume of distribution, Vss) [5, 8]: 0.06 L/kg

- cross reaction with RhSA [1]: cross reacted
- cross reaction with MuSA [7]: did not cross react
- Comments: binding in dependence of pH [2]: Loss of binding at pH ≦6.5
B7: SABA2.1: His-tagged SABA2 sequence (protein)
chain: MGVSDVPRDLEVVAATPTSLLISWPKYDKTGHYYRITYGETGGNSPVQEFTVPTRQTTATISGLKPGVDYTITVYAVSKDDYYPHEHRPISINYRTEIDKPSQHHHHHH
modifications: His6 tag
- PK (T½) Mice [4]: 2.8 h
- half-life in mice plasma [4]: 0.24 h
- increase in half life when co-injected with HSA [4]: ~12 fold
- SEC Dimer (%) [6]: 9%
- SEC Monomer (%) [6]: 91%

- Kd [1]: 63.6 nM
- Resistant to pH 7.4→5.5? [2]: pH sensitive
B8: SABA2: SABA core sequence from PROfusion; in Table 5 stands for SABA2.1 (protein)
chain: EVVAATPTSLLISWPKYDKTGHYYRITYGETGGNSPVQEFTVPTRQTTATISGLKPGVDYTITVYAVSKDDYYPHEHRPISINYRT
- Kd [2]: 33.8 nM

- Comments: binding affinity for RhSA [1]: Poor binding affinity for RhSA.
- cross reaction with RhSA [1]: cross reacted
- cross reaction with MuSA [7]: did not cross react
- Comments: decrease in KD observed at pH <6.0 ([2]; pH <6.0): >2-fold decrease in KD observed at
B9: SABA4.1: HSA binding clone of SABA4 (protein)
chain: MGVSDVPRDLEMVAATPTSLLISWEDDSYYSRYYRITYGETGGNSPVQEFTVPSDLYTATISGLKPGVDYTITVYAVTYDVTDLIMHEPISINYRTEIDKPSQHHHHHH
modifications: His6 tag
- PK (T½) Mice [4]: 4.6 h
- half-life in mice plasma [4]: 0.66 h
- increase in half life when co-injected with HSA [4]: ~7 fold
